Target: Tom22-T1′ (Tom22 without helix H1) (human) (UniProt Q9NS69)
Experiment: pull-down

Substance: Su9-TEV-DHFR-EGFP-Strep
- decrease in the binding ability against Tom22 before cleavage: 75%
